Residue numbers refer to the chain shown, from its start.

The values that follow come from patent US20240209076A1 (KODIAK SCIENCES, published 2024).

First the molecules themselves.
B1: anti-IL-6 Fab, heavy chain F27V (Fab, V domains shown)
VH: EVQLVESGGGLVQPGGSLRLSCAASGVTFSPFAMSWVRQAPGKGLEWVAKISPGGSWTYYSDTVTGRFTFSLDTSKSTAYLQMNSLRAEDTAVYYCARQLWGYYALDIWGQGTLVTVSS
VL: DIQLTQSPSSLSASVGDRVTITCSASISVSYMYWYQQKPGKAPKLLIYDMSNLASGVPSRFSGSGSGTDFTLTISSLQPEDFATYYCMQWSGYPYTFGQGTKVEIK
notes: see m39
B2: anti-IL-6 Fab, heavy chain V48L (Fab, V domains shown)
VH: B1 VH with V27F, V48L
VL: B1 VL
notes: see m39
B3: anti-IL-6 Fab, heavy chain T63E (Fab, V domains shown)
VH: B1 VH with V27F, T63E
VL: B1 VL
notes: see m39
B4: anti-IL-6 Fab, heavy chain I108F (Fab, V domains shown)
VH: B1 VH with V27F, I108F
VL: B1 VL
notes: see m39
B5: anti-IL-6 Fab, heavy chain T58R (Fab, V domains shown)
VH: B1 VH with V27F, T58R
VL: B1 VL
notes: see m39
B6: anti-IL-6 Fab, heavy chain T65I (Fab, V domains shown)
VH: B1 VH with V27F, T65I
VL: B1 VL
notes: see m39
B7: anti-IL-6 Fab, heavy chain S61A (Fab, V domains shown)
VH: B1 VH with V27F, S61A
VL: B1 VL
notes: see m39
B8: anti-IL-6 Fab, heavy chain G66E (Fab, V domains shown)
VH: B1 VH with V27F, G66E
VL: B1 VL
notes: see m39
B9: anti-IL-6 Fab, heavy chain S35Q (Fab, V domains shown)
VH: B1 VH with V27F, S35Q
VL: B1 VL
notes: see m39
B10: anti-IL-6 Fab, heavy chain R98G (Fab, V domains shown)
VH: B1 VH with V27F, R98G
VL: B1 VL
notes: see m39
B11: anti-IL-6 Fab, heavy chain G26R (Fab, V domains shown)
VH: B1 VH with G26R, V27F
VL: B1 VL
notes: see m39
B12: anti-IL-6 Fab, heavy chain T28A (Fab, V domains shown)
VH: B1 VH with V27F, T28A
VL: B1 VL
notes: see m39
B13: anti-IL-6 Fab, heavy chain I51R (Fab, V domains shown)
VH: B1 VH with V27F, I51R
VL: B1 VL
notes: see m39
B14: anti-IL-6 Fab, heavy chain T65A (Fab, V domains shown)
VH: B1 VH with V27F, T65A
VL: B1 VL
notes: see m39
B15: anti-IL-6 Fab, heavy chain T58V (Fab, V domains shown)
VH: B1 VH with V27F, T58V
VL: B1 VL
notes: see m39
B16: anti-IL-6 Fab, heavy chain T65G (Fab, V domains shown)
VH: B1 VH with V27F, T65G
VL: B1 VL
notes: see m39
B17: anti-IL-6 Fab, heavy chain L106F (Fab, V domains shown)
VH: B1 VH with V27F, L106F
VL: B1 VL
notes: see m39
B18: anti-IL-6 Fab, heavy chain T63D (Fab, V domains shown)
VH: B1 VH with V27F, T63D
VL: B1 VL
notes: see m39
B19: anti-IL-6 Fab, heavy chain S56H (Fab, V domains shown)
VH: B1 VH with V27F, S56H
VL: B1 VL
notes: see m39
B20: anti-IL-6 Fab, heavy chain F32V (Fab, V domains shown)
VH: B1 VH with V27F, F32V
VL: B1 VL
notes: see m39
B21: anti-IL-6 Fab, heavy chain T65D (Fab, V domains shown)
VH: B1 VH with V27F, T65D
VL: B1 VL
notes: see m39
B22: anti-IL-6 Fab, heavy chain G66D (Fab, V domains shown)
VH: B1 VH with V27F, G66D
VL: B1 VL
notes: see m39
B23: anti-IL-6 Fab, heavy chain S30Y (Fab, V domains shown)
VH: B1 VH with V27F, S30Y
VL: B1 VL
notes: see m39
B24: anti-IL-6 Fab, heavy chain S35H (Fab, V domains shown)
VH: B1 VH with V27F, S35H
VL: B1 VL
notes: see m39
B25: anti-IL-6 Fab, heavy chain M34W (Fab, V domains shown)
VH: B1 VH with V27F, M34W
VL: B1 VL
notes: see m39
B26: anti-IL-6 Fab, heavy chain T58K (Fab, V domains shown)
VH: B1 VH with V27F, T58K
VL: B1 VL
notes: see m39
B27: anti-IL-6 Fab, heavy chain T65Y (Fab, V domains shown)
VH: B1 VH with V27F, T65Y
VL: B1 VL
notes: see m39
B28: anti-IL-6 Fab, heavy chain F29Y (Fab, V domains shown)
VH: B1 VH with V27F, F29Y
VL: B1 VL
notes: see m39
B29: anti-IL-6 Fab, heavy chain S30G (Fab, V domains shown)
VH: B1 VH with V27F, S30G
VL: B1 VL
notes: see m39
B30: anti-IL-6 Fab, heavy chain G26S (Fab, V domains shown)
VH: B1 VH with G26S, V27F
VL: B1 VL
notes: see m39
B31: anti-IL-6 Fab, heavy chain T63G (Fab, V domains shown)
VH: B1 VH with V27F, T63G
VL: B1 VL
notes: see m39
B32: anti-IL-6 Fab, heavy chain T28Y (Fab, V domains shown)
VH: B1 VH with V27F, T28Y
VL: B1 VL
notes: see m39
B33: anti-IL-6 Fab, heavy chain T63Q (Fab, V domains shown)
VH: B1 VH with V27F, T63Q
VL: B1 VL
notes: see m39
B34: anti-IL-6 Fab, heavy chain T65L (Fab, V domains shown)
VH: B1 VH with V27F, T65L
VL: B1 VL
notes: see m39
B35: anti-IL-6 Fab, heavy chain S30W (Fab, V domains shown)
VH: B1 VH with V27F, S30W
VL: B1 VL
notes: see m39
B36: anti-IL-6 Fab, heavy chain T28E (Fab, V domains shown)
VH: B1 VH with V27F, T28E
VL: B1 VL
notes: see m39
B37: anti-IL-6 Fab, heavy chain S61K (Fab, V domains shown)
VH: B1 VH with V27F, S61K
VL: B1 VL
notes: see m39
B38: anti-IL-6 Fab, heavy chain S56R (Fab, V domains shown)
VH: B1 VH with V27F, S56R
VL: B1 VL
notes: see m39
B39: anti-IL-6 Fab, heavy chain T28K (Fab, V domains shown)
VH: B1 VH with V27F, T28K
VL: B1 VL
notes: see m39
B40: anti-IL-6 Fab, heavy chain T63K (Fab, V domains shown)
VH: B1 VH with V27F, T63K
VL: B1 VL
notes: see m39
B41: anti-IL-6 Fab, heavy chain F29H (Fab, V domains shown)
VH: B1 VH with V27F, F29H
VL: B1 VL
notes: see m39
B42: anti-IL-6 Fab, heavy chain F32G (Fab, V domains shown)
VH: B1 VH with V27F, F32G
VL: B1 VL
notes: see m39
B43: anti-IL-6 Fab, heavy chain V48Q (Fab, V domains shown)
VH: B1 VH with V27F, V48Q
VL: B1 VL
notes: see m39
B44: anti-IL-6 Fab, heavy chain S61R (Fab, V domains shown)
VH: B1 VH with V27F, S61R
VL: B1 VL
notes: see m39

The target in this experiment is recombinant human IL-6 (human, UniProt P05231 30-212). Kind of experiment: SPR, IL-6 on CM5 chip, Fab lysate, 25 C. As to the method: Three ranges of antigen density (100-150 RU, 300-400 RU, 400-600 RU) were obtained by using variable flow times for each chip channel, later blocked with ethanolamine. Supernatants of the 96-well filtered culture lysates were injected at 50 μL/min for 120 seconds. Fitting of dissociation curves (300 seconds) to single exponential decay curve was used for the determination of dissociation rates (koff). Chip surfaces were regenerated with 10 mM Glycine pH 1.7 solution injected at 50 μL/min during 60 seconds after every cycle of sample binding and dissociation.
Chain of recombinant human IL-6 (P05231 30-212 limits assumed): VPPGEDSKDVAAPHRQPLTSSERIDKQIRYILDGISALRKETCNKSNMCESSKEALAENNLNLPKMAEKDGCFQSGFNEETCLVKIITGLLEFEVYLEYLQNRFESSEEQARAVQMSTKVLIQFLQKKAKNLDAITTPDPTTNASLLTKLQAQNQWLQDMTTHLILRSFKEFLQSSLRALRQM
(SPR reads the build-up and loss of mass on a sensor chip optically.)
With B1, the koff (in general, a measure of how fast the partners let go of each other) was determined as 0.00405 s⁻¹.
The result for B2 reads 0.00517 s⁻¹; that for B3, 5.53e-05 s⁻¹.
The result for B4 reads 0.0034 s⁻¹; that for B5, 0.00425 s⁻¹.
The result for B6 reads 0.00615 s⁻¹.
For B7, the koff is 0.00604 s⁻¹.
The result for B8 reads 0.00505 s⁻¹.
For the molecule B9, the dissociation rate constant (koff) was found to be 0.00354 s⁻¹.
For B10, the koff stood at 0.0048 s⁻¹.
For the molecule B11, the koff was 0.00381 s⁻¹.
With B12, the dissociation rate constant (koff) turned out to be 0.00396 s⁻¹.
The result for B13 reads 0.00315 s⁻¹.
As to B14, the koff came to 0.00615 s⁻¹.
The result for B15 reads 0.0562 s⁻¹; that for B16, 0.0057 s⁻¹; that for B17, 0.00601 s⁻¹.
The result for B18 reads 0.00603 s⁻¹; that for B19, 0.0409 s⁻¹; that for B20, 0.00541 s⁻¹.
The result for B21 reads 0.00614 s⁻¹; that for B22, 0.00607 s⁻¹.
On to B23, for which the koff was 0.00352 s⁻¹.
The result for B24 reads 0.00392 s⁻¹.
As for B25, the koff was 0.00397 s⁻¹.
The result for B26 reads 0.00492 s⁻¹; that for B27, 0.00574 s⁻¹.
The result for B28 reads 0.00511 s⁻¹; that for B29, 0.00377 s⁻¹.
Take B30: the koff stood at 0.00375 s⁻¹.
The result for B31 reads 0.0539 s⁻¹; that for B32, 0.0039 s⁻¹.
The result for B33 reads 0.0057 s⁻¹; that for B34, 0.00592 s⁻¹; that for B35, 0.00369 s⁻¹.
Regarding B36, the koff turned out to be 0.00428 s⁻¹.
The result for B37 reads 0.00558 s⁻¹.
The result for B38 reads 0.00509 s⁻¹.
The result for B39 reads 0.00408 s⁻¹; that for B40, 0.00611 s⁻¹; that for B41, 0.00524 s⁻¹.
Take B42: the koff was 0.00525 s⁻¹.
With B43, the koff was 0.0034 s⁻¹.
In the case of B44, the koff amounted to 0.00585 s⁻¹.
